Results reported in publication PMC5052685, “The RNA-binding protein vigilin regulates VLDL secretion through modulation of Apob mRNA translation”.

Target: VIGILIN (Homo sapiens, UniProt Q00341 1-1268)
Experiment: EMSA; 10 nM 32P-RNA, 0-10 uM protein, 250 mM KCl, 5 mM MgCl2, 25 mM Tris-HCl pH 7.5, 10% glycerol, 1 mg/ml acetylated BSA, 1.5 uM yeast tRNA, 25 C, 5 min; 1.2% agarose gel, 1x TBE
Details: protein: recombinant; tags: His6 (expressed from pETM30-vigilin-His6); label: 5' 32P

VIGILIN, sequence (Q00341 whole entry): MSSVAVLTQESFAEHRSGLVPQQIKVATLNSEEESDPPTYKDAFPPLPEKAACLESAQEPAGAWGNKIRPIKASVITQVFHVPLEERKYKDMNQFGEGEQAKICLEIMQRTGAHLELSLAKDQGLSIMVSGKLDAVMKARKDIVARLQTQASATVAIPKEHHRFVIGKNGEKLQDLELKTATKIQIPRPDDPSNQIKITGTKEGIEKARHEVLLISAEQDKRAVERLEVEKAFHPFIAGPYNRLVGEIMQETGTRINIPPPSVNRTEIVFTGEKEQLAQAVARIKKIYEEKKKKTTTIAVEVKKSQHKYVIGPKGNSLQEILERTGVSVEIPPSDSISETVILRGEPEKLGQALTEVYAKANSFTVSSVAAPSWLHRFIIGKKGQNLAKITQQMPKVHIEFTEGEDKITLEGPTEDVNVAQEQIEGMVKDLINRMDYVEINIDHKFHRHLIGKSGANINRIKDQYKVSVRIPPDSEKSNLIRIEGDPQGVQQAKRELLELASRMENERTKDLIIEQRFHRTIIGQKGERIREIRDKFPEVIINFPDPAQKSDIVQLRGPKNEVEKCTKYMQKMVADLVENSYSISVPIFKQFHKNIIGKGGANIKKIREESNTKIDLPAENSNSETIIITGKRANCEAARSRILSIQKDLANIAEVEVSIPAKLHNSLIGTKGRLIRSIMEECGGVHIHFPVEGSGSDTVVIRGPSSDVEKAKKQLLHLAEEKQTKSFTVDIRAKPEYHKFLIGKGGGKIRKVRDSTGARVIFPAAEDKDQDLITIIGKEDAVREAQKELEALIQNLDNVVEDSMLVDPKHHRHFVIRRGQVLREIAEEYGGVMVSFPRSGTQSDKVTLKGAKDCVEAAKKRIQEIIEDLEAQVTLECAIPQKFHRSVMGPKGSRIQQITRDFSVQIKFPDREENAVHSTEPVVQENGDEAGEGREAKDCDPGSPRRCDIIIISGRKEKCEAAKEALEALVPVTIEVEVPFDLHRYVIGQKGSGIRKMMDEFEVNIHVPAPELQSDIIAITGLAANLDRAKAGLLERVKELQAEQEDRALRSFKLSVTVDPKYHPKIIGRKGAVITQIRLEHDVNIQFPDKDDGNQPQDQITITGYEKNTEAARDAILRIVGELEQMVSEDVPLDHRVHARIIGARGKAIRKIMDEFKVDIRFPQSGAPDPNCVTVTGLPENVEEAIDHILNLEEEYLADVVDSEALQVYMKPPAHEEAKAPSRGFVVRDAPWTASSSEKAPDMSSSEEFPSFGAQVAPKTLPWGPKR

B1: fetuin-A (Ahsg) binding site WT (ssRNA)
RNA: CUACCUCAAUAAUCAUCUUCUUCAGG
Does B1 bind?
Result: binds

B2: Apob binding site WT (ssRNA)
RNA: GAUUUAACUCCACCUACUUCCAGGGC
Does B2 bind?
Result: binds
